Data reported in patent US20260217779A1 (Chugai, published 2026).
Numbering of substitutions follows the chain as printed. In names and notes the source's numbering stands. Each block holds one binder with its values, some of them ahead of it.

Target: T1, human CXCR3 (hCXCR3) on Ba/F3 transfectant cells (human, UniProt P49682 1-368)
T1 sequence: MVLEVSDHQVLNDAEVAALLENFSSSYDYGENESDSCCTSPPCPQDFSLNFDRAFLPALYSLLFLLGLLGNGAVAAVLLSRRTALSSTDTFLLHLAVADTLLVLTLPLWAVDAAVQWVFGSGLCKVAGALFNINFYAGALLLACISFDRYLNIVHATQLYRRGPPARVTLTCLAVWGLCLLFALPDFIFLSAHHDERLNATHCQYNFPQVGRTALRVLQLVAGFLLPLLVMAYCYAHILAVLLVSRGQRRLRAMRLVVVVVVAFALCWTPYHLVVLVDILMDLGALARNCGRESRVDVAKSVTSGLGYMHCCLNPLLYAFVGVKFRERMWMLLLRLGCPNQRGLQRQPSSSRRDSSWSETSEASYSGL
Test: cell-based or functional assay

B3: hCXCL11.0010-G1T4k.one//VHn-G1T4h.one.H435R (Fc fusion)
chain 1: FKMFKRGRCLCIGPGVKAVKVADIEKASIMYPSNNCDKIEVIITLKENKGQRCLNPKSKQARLIIKKVERKNFEPKSSDKTHTCPPCPAPELRRGPSVFLFPPKPKDTLMISRTPEVTCVVVDVSHEDPEVKFNWYVDGVEVHNAKTKPREEQYNSTYRVVSVLTVLHQDWLNGKEYKCKVSNKGLPSSIEKTISKAKGQPREPQVCTLPPSREEMTKNQVSLWCLVKGFYPSDIAVEWESNGQPENNYKTTPPVLDSDGSFFLYSKLTVDKSRWQEGNVFSCSVMHEALHNHYTQKSLSLSP
chain 2: EPKSSDKTHTCPPCPAPELRRGPSVFLFPPKPKDTLMISRTPEVTCVVVDVSHEDPEVKFNWYVDGVEVHNAKTKPREEQYNSTYRVVSVLTVLHQDWLNGKEYKCKVSNKGLPSSIEKTISKAKGQPREPQVYTLPPSRCEMTKNQVSLSCAVKGFYPSDIAVEWESNGQPENNYKTTPPVLDSDGSFFLVSKLTVDKSRWQEGNVFSCSVMHEALHNRYTQKSLSLSP
- Activity retention rate at 33 nM: 7%
- Activity retention rate at 100 nM: 30%
- Activity retention rate at 300 nM: 63%
- Luminescence value at 33 nM: 524000
- Luminescence value at 100 nM: 4.93e+06
- Luminescence value at 300 nM: 7.78e+06

B4: hCXCL11.0011-G1T4k.one//VHn-G1T4h.one.H435R (Fc fusion)
chain 1: B3 chain 1 with K2L
chain 2: B3 chain 2
- Activity retention rate at 33 nM: 3%
- Activity retention rate at 100 nM: 24%
- Activity retention rate at 300 nM: 77%
- Luminescence value at 33 nM: 262000
- Luminescence value at 100 nM: 4.02e+06
- Luminescence value at 300 nM: 9.6e+06

B5: hCXCL11.0012-G1T4k.one//VHn-G1T4h.one.H435R (Fc fusion)
chain 1: B3 chain 1 with K2M
chain 2: B3 chain 2
- Activity retention rate at 33 nM: 17%
- Activity retention rate at 100 nM: 46%
- Activity retention rate at 300 nM: 95%
- Luminescence value at 33 nM: 1.33e+06
- Luminescence value at 100 nM: 7.6e+06
- Luminescence value at 300 nM: 1.18e+07

B8: hCXCL11.0017-G1T4k.one//VHn-G1T4h.one.H435R (Fc fusion)
chain 1: B3 chain 1 with K2T
chain 2: B3 chain 2
- Activity retention rate at 33 nM: 61%
- Activity retention rate at 100 nM: 74%
- Activity retention rate at 300 nM: 69%
- Luminescence value at 33 nM: 4.72e+06
- Luminescence value at 100 nM: 1.24e+07
- Luminescence value at 300 nM: 8.54e+06

B9: hCXCL11.0005-G1T4k.one//VHn-G1T4h.one.H435R (Fc fusion)
chain 1: B3 chain 1 with K2E
chain 2: B3 chain 2
- Activity retention rate at 33 nM: 40%
- Activity retention rate at 100 nM: 57%
- Activity retention rate at 300 nM: 49%
- Luminescence value at 33 nM: 3.11e+06
- Luminescence value at 100 nM: 9.59e+06
- Luminescence value at 300 nM: 6.03e+06

B11: hCXCL11.0004-G1T4k.one//VHn-G1T4h.one.H435R (Fc fusion)
chain 1: B3 chain 1 with K2D
chain 2: B3 chain 2
- Activity retention rate at 33 nM: 41%
- Activity retention rate at 100 nM: 57%
- Activity retention rate at 300 nM: 42%
- Luminescence value at 33 nM: 3.15e+06
- Luminescence value at 100 nM: 9.44e+06
- Luminescence value at 300 nM: 5.24e+06

B13: hCXCL11.0018-G1T4k.one//VHn-G1T4h.one.H435R (Fc fusion)
chain 1: B3 chain 1 with K2V
chain 2: B3 chain 2
- Activity retention rate at 33 nM: 24%
- Activity retention rate at 100 nM: 50%
- Activity retention rate at 300 nM: 81%
- Luminescence value at 33 nM: 1.85e+06
- Luminescence value at 100 nM: 8.32e+06
- Luminescence value at 300 nM: 1.01e+07

B14: hCXCL11.0007-G1T4k.one//VHn-G1T4h.one.H435R (Fc fusion)
chain 1: B3 chain 1 with K2G
chain 2: B3 chain 2
- Activity retention rate at 33 nM: 45%
- Activity retention rate at 100 nM: 61%
- Activity retention rate at 300 nM: 78%
- Luminescence value at 33 nM: 3.47e+06
- Luminescence value at 100 nM: 1.02e+07
- Luminescence value at 300 nM: 9.71e+06

B18: hCXCL11.0022-G1T4k.one//VHn-G1T4h.one.H435R (Fc fusion)
chain 1: DFPMFKRGRCLCIGPGVKAVKVADIEKASIMYPSNNCDKIEVIITLKENKGQRCLNPKSKQARLIIKKVERKNFEPKSSDKTHTCPPCPAPELRRGPSVFLFPPKPKDTLMISRTPEVTCVVVDVSHEDPEVKFNWYVDGVEVHNAKTKPREEQYNSTYRVVSVLTVLHQDWLNGKEYKCKVSNKGLPSSIEKTISKAKGQPREPQVCTLPPSREEMTKNQVSLWCLVKGFYPSDIAVEWESNGQPENNYKTTPPVLDSDGSFFLYSKLTVDKSRWQEGNVFSCSVMHEALHNHYTQKSLSLSP
chain 2: B3 chain 2
- Activity retention rate at 33 nM: 178%
- Activity retention rate at 100 nM: 89%
- Activity retention rate at 300 nM: 49%
- Luminescence value at 33 nM: 1.37e+07
- Luminescence value at 100 nM: 1.48e+07
- Luminescence value at 300 nM: 6.06e+06

B19: hCXCL11.0014-G1T4k.one//VHn-G1T4h.one.H435R (Fc fusion)
chain 1: B3 chain 1 with K2Q
chain 2: B3 chain 2
- Activity retention rate at 33 nM: 105%
- Activity retention rate at 100 nM: 89%
- Activity retention rate at 300 nM: 60%
- Luminescence value at 33 nM: 8.07e+06
- Luminescence value at 100 nM: 1.48e+07
- Luminescence value at 300 nM: 7.51e+06

B21: hCXCL11.0006-G1T4k.one//VHn-G1T4h.one.H435R (Fc fusion)
chain 1: B3 chain 1 with K2F
chain 2: B3 chain 2
- Activity retention rate at 33 nM: 4%
- Activity retention rate at 100 nM: 27%
- Activity retention rate at 300 nM: 79%
- Luminescence value at 33 nM: 326000
- Luminescence value at 100 nM: 4.55e+06
- Luminescence value at 300 nM: 9.79e+06

B22: hCXCL11.0015-G1T4k.one//VHn-G1T4h.one.H435R (Fc fusion)
chain 1: B3 chain 1 with K2R
chain 2: B3 chain 2
- Activity retention rate at 33 nM: 34%
- Activity retention rate at 100 nM: 73%
- Activity retention rate at 300 nM: 98%
- Luminescence value at 33 nM: 2.62e+06
- Luminescence value at 100 nM: 1.23e+07
- Luminescence value at 300 nM: 1.22e+07

Results, then the binder that gave them:

- Luminescence value at 33 nM: 7.68e+06
- Luminescence value at 100 nM: 1.67e+07
- Luminescence value at 300 nM: 1.24e+07
B1: hCXCL11-G1T4k.one//VHn-G1T4h.one.H435R (Fc fusion)
chain 1: B3 chain 1 with K2P
chain 2: B3 chain 2

- Activity retention rate at 33 nM: 189%
- Activity retention rate at 100 nM: 98%
- Activity retention rate at 300 nM: 48%
- Luminescence value at 33 nM: 1.45e+07
- Luminescence value at 100 nM: 1.64e+07
- Luminescence value at 300 nM: 5.98e+06
B2: hCXCL11.0023-G1T4k.one//VHn-G1T4h.one.H435R (Fc fusion)
chain 1: B18 chain 1 with D1E
chain 2: B3 chain 2

- Activity retention rate at 33 nM: 13%
- Activity retention rate at 100 nM: 41%
- Activity retention rate at 300 nM: 109%
- Luminescence value at 33 nM: 966000
- Luminescence value at 100 nM: 6.79e+06
- Luminescence value at 300 nM: 1.35e+07
B6: hCXCL11.0009-G1T4k.one//VHn-G1T4h.one.H435R (Fc fusion)
chain 1: B3 chain 1 with K2I
chain 2: B3 chain 2

- Activity retention rate at 33 nM: 65%
- Activity retention rate at 100 nM: 75%
- Activity retention rate at 300 nM: 69%
- Luminescence value at 33 nM: 4.95e+06
- Luminescence value at 100 nM: 1.25e+07
- Luminescence value at 300 nM: 8.57e+06
B7: hCXCL11.0016-G1T4k.one//VHn-G1T4h.one.H435R (Fc fusion)
chain 1: B3 chain 1 with K2S
chain 2: B3 chain 2

- Activity retention rate at 33 nM: 4%
- Activity retention rate at 100 nM: 28%
- Activity retention rate at 300 nM: 93%
- Luminescence value at 33 nM: 325000
- Luminescence value at 100 nM: 4.66e+06
- Luminescence value at 300 nM: 1.15e+07
B10: hCXCL11.0019-G1T4k.one//VHn-G1T4h.one.H435R (Fc fusion)
chain 1: B3 chain 1 with K2W
chain 2: B3 chain 2

- Activity retention rate at 33 nM: 44%
- Activity retention rate at 100 nM: 73%
- Activity retention rate at 300 nM: 108%
- Luminescence value at 33 nM: 3.4e+06
- Luminescence value at 100 nM: 1.22e+07
- Luminescence value at 300 nM: 1.34e+07
B12: hCXCL11.0008-G1T4k.one//VHn-G1T4h.one.H435R (Fc fusion)
chain 1: B3 chain 1 with K2H
chain 2: B3 chain 2

- Activity retention rate at 33 nM: 49%
- Activity retention rate at 100 nM: 70%
- Activity retention rate at 300 nM: 90%
- Luminescence value at 33 nM: 3.76e+06
- Luminescence value at 100 nM: 1.17e+07
- Luminescence value at 300 nM: 1.12e+07
B15: hCXCL11.0003-G1T4k.one//VHn-G1T4h.one.H435R (Fc fusion)
chain 1: B3 chain 1 with K2A
chain 2: B3 chain 2

- Activity retention rate at 33 nM: 71%
- Activity retention rate at 100 nM: 78%
- Activity retention rate at 300 nM: 81%
- Luminescence value at 33 nM: 5.49e+06
- Luminescence value at 100 nM: 1.31e+07
- Luminescence value at 300 nM: 1.01e+07
B16: hCXCL11.0013-G1T4k.one//VHn-G1T4h.one.H435R (Fc fusion)
chain 1: B3 chain 1 with K2N
chain 2: B3 chain 2

- Activity retention rate at 33 nM: 108%
- Activity retention rate at 100 nM: 93%
- Activity retention rate at 300 nM: 84%
- Luminescence value at 33 nM: 8.26e+06
- Luminescence value at 100 nM: 1.56e+07
- Luminescence value at 300 nM: 1.04e+07
B17: hCXCL11.0021-G1T4k.one//VHn-G1T4h.one.H435R (Fc fusion)
chain 1: B18 chain 1 with D1A
chain 2: B3 chain 2

- Activity retention rate at 33 nM: 28%
- Activity retention rate at 100 nM: 62%
- Activity retention rate at 300 nM: 95%
- Luminescence value at 33 nM: 2.15e+06
- Luminescence value at 100 nM: 1.03e+07
- Luminescence value at 300 nM: 1.18e+07
B20: hCXCL11.0020-G1T4k.one//VHn-G1T4h.one.H435R (Fc fusion)
chain 1: B3 chain 1 with K2Y
chain 2: B3 chain 2
